Experimental data reported in publication PMC11585597.

What was measured:
[1] = target: StrepII-∆N-term DERA (Chloroflexi bacterium GWB2_54_36); test: pull-down + SEC
[2] = target: HIS-∆N-term DERA (deoxyribose 5-phosphate aldolase of the SPU6 BMC locus, N-terminal extension deleted) (Chloroflexi bacterium GWB2_54_36); test: SEC

Substance	stoichiometry N [1]	subunits of each protein in the complex [1]	stoichiometry N [2]
HIS-RPI (ribose 5-phosphate isomerase B family protein of the SPU6 BMC locus, full length) (enzyme)	1	> 2	–
HIS-∆N-term DERA (deoxyribose 5-phosphate aldolase of the SPU6 BMC locus, N-terminal extension deleted) (domain or fragment)	–	–	2
